Data published in US20190382483A1 (published 2019).

T1: Recombinant hSIRPg-His (Sino Biologicals, reference 11828-H08H) (human, UniProt Q9P1W8 29-360)
T1 chain: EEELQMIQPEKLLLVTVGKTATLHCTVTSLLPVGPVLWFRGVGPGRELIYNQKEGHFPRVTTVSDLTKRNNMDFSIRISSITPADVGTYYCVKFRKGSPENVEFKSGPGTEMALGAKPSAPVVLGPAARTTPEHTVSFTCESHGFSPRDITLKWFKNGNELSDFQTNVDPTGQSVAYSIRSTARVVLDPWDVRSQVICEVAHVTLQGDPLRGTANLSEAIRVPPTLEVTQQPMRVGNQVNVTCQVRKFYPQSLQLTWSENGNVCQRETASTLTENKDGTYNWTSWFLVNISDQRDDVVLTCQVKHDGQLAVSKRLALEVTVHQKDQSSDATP


Molecular target: T1, Recombinant hSIRPg-His (Sino …)
Assay: Blitz (BLI)

Row | Binder | Kd [nM]
1 | SIRP29 (antibody, V domains shown) VH: EVQLQQSGAELVKPGASVKLSCTASGFNIKDYYIHWVQQRTEQGLEWIGRIDPEDGETKYAPKFQDKATITADTSSNTAYLHLSSLTSEDTAVYYCARWGAYWGQGTLVTVSS VL: QIVLTQSPAIMSASPGEKVTLTCSASSSVSSSYLYWYQQKPGSSPKLWIYSTSNLASGVPARFSGSGSGTSYSLTISSMEAEDAASYFCHQWSSYPRTFGAGTKLELK | 5.3
2 | Kwar23 (antibody, V domains shown) VH: EVQLQQSGAELVKPGASVKLSCTASGFNIKDYYIHWVQQRTEQGLEWIGRIDPEDGETKYAPKFQDKATITADTSSNTAYLHLSSLTSEDTAVYYCARWGAYWGQGTLVTVSS VL: QIVLTQSPAIMSASPGEKVTLTCSASSSVSSSYLYWYQQKPGSSPKLWIYSTSNLASGVPARFSGSGSGTSYSLTISSMEAEDAASYFCHQWSSYPRTFGAGTKLELK | 2.14
